From the Immune Epitope Database (IEDB)
Blank lines part the entries; values can stand above or below the sequence they belong to.

How the values were obtained:
Conditions in all cases: source organism: Homo sapiens
HLA-A*11:01 = experiment: IEDB peptide-MHC binding, purified MHC/competitive/radioactivity; filed as Kd, often an IC50 or EC50 that approximates it; ≥ and ≤ were set here for values at or beyond the usual limits of such assays
HLA-A*03:01 [1] = experiment: as above
HLA-A*02:01 [2] = experiment: as above
HLA-A*01:01 = experiment: as above
HLA-A*02:01 [3] = experiment: IEDB peptide-MHC binding, purified MHC/competitive/radioactivity; ≥ and ≤ were set here for values at or beyond the usual limits of such assays
HLA-A*03:01 [4] = experiment: as above
HLA-A*24:02 = experiment: IEDB peptide-MHC binding, purified MHC/competitive/radioactivity; filed as Kd, often an IC50 or EC50 that approximates it; ≥ and ≤ were set here for values at or beyond the usual limits of such assays

Kd (HLA-A*11:01): 20.3 nM
Kd (HLA-A*03:01 [1]): 31.4 nM
Sequence: ADLVGFLLLK

Kd (HLA-A*11:01): 16.4 nM
Kd (HLA-A*03:01 [1]): 35.5 nM
Sequence: ALAETSYVK

Kd (HLA-A*02:01 [2]): 333 nM
Sequence: ALGLVCVQA

Kd (HLA-A*01:01): 44.6 nM
Sequence: ETSYVKVLEY

IC50 (HLA-A*02:01 [3]): 980 nM
Sequence: GLLGDNQIM

Kd (HLA-A*24:02): 34.3 nM
Kd (HLA-A*02:01 [2]): 1430 nM
Sequence: IMPKTGFLII

Kd (HLA-A*02:01 [2]): 4170 nM
Sequence: KTGFLIIVLV

Kd (HLA-A*02:01 [2]): 89.3 nM
Sequence: KVADLVGFLL

Kd (HLA-A*03:01 [1]): 1000 nM
Sequence: LFRAVITKK

Kd (HLA-A*03:01 [1]): ≥ 5000 nM
Sequence: LIIVLVMIA

IC50 (HLA-A*03:01 [4]): 550 nM
Sequence: LLGDNQIMP

Kd (HLA-A*11:01): 15.5 nM
Sequence: LTQDLVQEK

Kd (HLA-A*03:01 [1]): 196 nM
Sequence: LVGFLLLKY

Kd (HLA-A*02:01 [2]): 156 nM
Sequence: LVLGTLEEV

Kd (HLA-A*11:01): 111 nM
Sequence: LVQEKYLEY

Kd (HLA-A*03:01 [1]): 3550 nM
Sequence: MSLEQRSLH

Kd (HLA-A*24:02): 2.5 nM
Sequence: NYKHCFPEI

IC50 (HLA-A*02:01 [3]): 500 nM
Sequence: RALAETSYV

Kd (HLA-A*03:01 [1]): 25.6 nM
Sequence: RVRFFFPSLR

Kd (HLA-A*11:01): 6 nM
Kd (HLA-A*03:01 [1]): 9.2 nM
Sequence: SLFRAVITKK

Kd (HLA-A*24:02): 333 nM
Sequence: SYVKVLEYVI

Kd (HLA-A*11:01): 5.9 nM
IC50 (HLA-A*03:01 [4]): 688 nM
Sequence: TTINFTRQR

IC50 (HLA-A*03:01 [4]): 579 nM
Sequence: YVIKVSARVR

Kd (HLA-A*03:01 [1]): 3790 nM
Sequence: YVKVLEYVIK

The remaining lines, values behind:

Sequence: ALREEEEGV
Kd (HLA-A*02:01 [2]): 238 nM

Sequence: DLVGFLLLKY
Kd (HLA-A*03:01 [1]): 1590 nM

Sequence: FLIIVLVMIA
Kd (HLA-A*03:01 [1]): 1180 nM

Sequence: FLWGPRALA
Kd (HLA-A*02:01 [2]): 119 nM

Sequence: GLVCVQAAT
Kd (HLA-A*02:01 [2]): 2170 nM

Sequence: HSAYGEPRK
IC50 (HLA-A*03:01 [4]): 786 nM

Sequence: IMPKTGFLI
Kd (HLA-A*24:02): 3.8 nM
IC50 (HLA-A*02:01 [3]): 649 nM

Sequence: KVADLVGFL
IC50 (HLA-A*02:01 [3]): 575 nM

Sequence: LLTQDLVQEK
Kd (HLA-A*11:01): 36.9 nM

Sequence: LSVMEVYDGR
Kd (HLA-A*11:01): 492 nM

Sequence: LTQDLVQEKY
Kd (HLA-A*01:01): 20.8 nM

Sequence: LVGFLLLKYR
Kd (HLA-A*03:01 [1]): 3240 nM

Sequence: MLESVIKNY
Kd (HLA-A*01:01): 2270 nM

Sequence: MLESVIKNYK
Kd (HLA-A*11:01): 218 nM
Kd (HLA-A*03:01 [1]): 78.6 nM

Sequence: RALAETSYVK
Kd (HLA-A*11:01): 24.6 nM
Kd (HLA-A*03:01 [1]): 61.1 nM

Sequence: SLEQRSLHCK
Kd (HLA-A*11:01): 393 nM
IC50 (HLA-A*03:01 [4]): 733 nM

Sequence: SLHCKPEEA
Kd (HLA-A*02:01 [2]): 385 nM

Sequence: SLQLVFGIDV
Kd (HLA-A*02:01 [2]): 2500 nM

Sequence: SVMEVYDGR
Kd (HLA-A*11:01): 4.5 nM
Kd (HLA-A*03:01 [1]): 1180 nM

Sequence: TSCILESLFR
Kd (HLA-A*11:01): 393 nM

Sequence: VADLVGFLL
Kd (HLA-A*02:01 [2]): 2500 nM

Sequence: VGFLLLKYR
Kd (HLA-A*03:01 [1]): 2500 nM

Sequence: VMIAMEGGHA
Kd (HLA-A*02:01 [2]): 139 nM

Sequence: YVIKVSARV
Kd (HLA-A*02:01 [2]): 357 nM

Sequence: YVLVTCLGL
Kd (HLA-A*02:01 [2]): 2170 nM
